This note sets out measurements from PMC8902816, “Plasmodium falciparum GBP2 Is a Telomere-Associated Protein That Binds to G-Quadruplex DNA and RNA”.

For series [1], the target named is T1, PfGBP2 (Plasmodium falciparum, UniProt Q8IJX3 1-246).
T1 sequence: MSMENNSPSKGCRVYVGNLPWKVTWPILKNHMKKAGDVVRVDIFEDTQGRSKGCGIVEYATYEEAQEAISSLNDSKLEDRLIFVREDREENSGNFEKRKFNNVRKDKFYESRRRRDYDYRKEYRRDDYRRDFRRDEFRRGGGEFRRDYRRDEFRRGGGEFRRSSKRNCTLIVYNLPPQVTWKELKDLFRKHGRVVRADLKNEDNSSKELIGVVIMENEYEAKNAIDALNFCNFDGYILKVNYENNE
Put plainly: EMSA; 50 ng dIdC; EMSA: 1 ug GBP2 (bacterial extract), 50 ng dIdC, 20 fmol biotin probe, 20 min, room temperature, 200-fold competitor, 0.5x TBE 4-12% gel; dot blot/ThT: oligos folded in 100 uM (so in the source) Tris pH 7.8 and 100 uM KCl, or LiCl up to 1 M. As to conditions: protein: recombinant; tags: 6xHis at N and C termini (pET-28a+); label: 3' biotin (EMSA). In general terms: A gel shift assay detects complexes by their altered migration in electrophoresis.

Series [2] concerns the target T1, PfGBP2. Put plainly: EMSA; 50 ng dIdC; not efficiently competed by unlabeled RNA, partially by unlabeled DNA; EMSA: 1 ug GBP2 (bacterial extract), 50 ng dIdC, 20 fmol biotin probe, 20 min, room temperature, 200-fold competitor, 0.5x TBE 4-12% gel; dot blot/ThT: oligos folded in 100 uM (so in the source) Tris pH 7.8 and 100 uM KCl, or LiCl up to 1 M. The following applies: protein: recombinant; tags: 6xHis at N and C termini (pET-28a+); label: 3' biotin (EMSA).

Turning to TTAAAATTTATAATTATAAATTTTAA (ssDNA) [A/T only], the binding result with PfGBP2 [1] is on record as “no binding”.
For the molecule UUCAGGGUUCAGGGUUCAGGGUUCAGGGUUC (ssRNA) [RNA G-rich 2], the binding result in the series with PfGBP2 [2] is listed as “binds”.
On to GTGTATGCGTTATGTGTATGCGTGTGAGTG (ssDNA) [G-rich 1 scram], for which, in the series with PfGBP2 [1], the binding result is given as “no binding”.
